From patent publication US20160209426A1 (Genentech, published 2016)

Target: T1, integrin alphaEbeta7 (human, UniProt P38570 19-1179; P26010 20-798)
T1 construct: whole, on cells; In the occupancy experiments it stood on T lymphocytes from patients' colonic biopsies; also called αEβ7; αEβ7 receptor
Test: flow cytometry on CD45+CD3+CD4- T lymphocytes from a pre-dose colonic biopsy
Procedure: Etrolizumab binds the β7 subunits of the heterodimeric integrins α4β7 and αEβ7. While α4β7 is expressed on leukocyte subsets in both blood and mucosal tissue, αEβ7 is primarily confined to intraepithelial lymphocytes and dendritic cells in mucosal tissue. Therefore, to evaluate the pharmacology and mechanism of action of etrolizumab at the site of action as well as in circulation, colonic tissue was assessed in addition to peripheral blood. Colonic tissue biopsies were collected using standard surgical procedures from 23 consented, study-enrolled patients at pre-dose (screen) and at certain post dose time points (day 43 and day 71). […]
Similar to the flow cytometry assay conducted on peripheral blood cells, occupancy of β7 integrin receptors on colonic tissue T lymphocyte subsets was assessed by staining with fluorescently labeled (PE label) FIB504, while expression of β7 integrin receptors was evaluated using fluorescently labeled 9D8 (PE label). […] Samples were then acquired on a BD FACS Cantoll™ or a BD FACSCalibur™ (BD Biosciences, San Jose, Calif. USA) and analyzed by gating on subsets of αEβ7-expressing and α4β7-expressing CD3+CD45+, αEβ7-expressing and α4β7-expressing CD3+CD4+CD45+, and αEβ7-expressing and α4β7-expressing CD3+CD4-CD45+ T cell subsets. […]

T1 sequence (P38570 19-1179, chain 1 of 2): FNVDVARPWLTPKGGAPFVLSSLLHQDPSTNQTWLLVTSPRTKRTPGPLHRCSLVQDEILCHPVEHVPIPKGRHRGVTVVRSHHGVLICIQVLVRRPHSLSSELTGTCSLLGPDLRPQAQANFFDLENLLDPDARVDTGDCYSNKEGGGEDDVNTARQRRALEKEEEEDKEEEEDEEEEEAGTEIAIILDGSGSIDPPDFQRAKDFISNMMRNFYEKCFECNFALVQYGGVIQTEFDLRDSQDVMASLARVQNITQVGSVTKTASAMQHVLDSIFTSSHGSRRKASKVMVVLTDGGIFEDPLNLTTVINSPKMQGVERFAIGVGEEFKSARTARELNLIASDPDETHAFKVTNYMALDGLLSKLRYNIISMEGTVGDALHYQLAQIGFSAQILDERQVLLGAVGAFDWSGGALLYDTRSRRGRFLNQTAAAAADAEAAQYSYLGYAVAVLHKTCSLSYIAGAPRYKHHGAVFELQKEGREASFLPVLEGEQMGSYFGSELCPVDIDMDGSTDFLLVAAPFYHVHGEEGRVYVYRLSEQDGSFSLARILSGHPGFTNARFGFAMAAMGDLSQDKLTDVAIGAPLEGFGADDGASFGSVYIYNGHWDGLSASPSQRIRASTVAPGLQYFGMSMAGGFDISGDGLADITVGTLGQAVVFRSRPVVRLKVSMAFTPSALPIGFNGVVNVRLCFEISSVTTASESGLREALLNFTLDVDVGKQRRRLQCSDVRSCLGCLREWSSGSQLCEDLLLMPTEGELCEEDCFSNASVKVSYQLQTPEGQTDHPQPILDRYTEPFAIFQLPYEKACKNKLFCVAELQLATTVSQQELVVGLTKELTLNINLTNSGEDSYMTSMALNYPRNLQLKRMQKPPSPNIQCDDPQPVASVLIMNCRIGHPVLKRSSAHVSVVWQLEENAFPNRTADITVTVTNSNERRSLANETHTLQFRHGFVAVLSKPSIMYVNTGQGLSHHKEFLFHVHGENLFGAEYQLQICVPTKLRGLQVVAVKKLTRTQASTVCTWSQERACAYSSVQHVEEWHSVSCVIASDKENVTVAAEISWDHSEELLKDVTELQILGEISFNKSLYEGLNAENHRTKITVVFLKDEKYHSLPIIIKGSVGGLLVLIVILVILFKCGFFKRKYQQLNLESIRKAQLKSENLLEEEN
T1 sequence (P26010 20-798, chain 2 of 2): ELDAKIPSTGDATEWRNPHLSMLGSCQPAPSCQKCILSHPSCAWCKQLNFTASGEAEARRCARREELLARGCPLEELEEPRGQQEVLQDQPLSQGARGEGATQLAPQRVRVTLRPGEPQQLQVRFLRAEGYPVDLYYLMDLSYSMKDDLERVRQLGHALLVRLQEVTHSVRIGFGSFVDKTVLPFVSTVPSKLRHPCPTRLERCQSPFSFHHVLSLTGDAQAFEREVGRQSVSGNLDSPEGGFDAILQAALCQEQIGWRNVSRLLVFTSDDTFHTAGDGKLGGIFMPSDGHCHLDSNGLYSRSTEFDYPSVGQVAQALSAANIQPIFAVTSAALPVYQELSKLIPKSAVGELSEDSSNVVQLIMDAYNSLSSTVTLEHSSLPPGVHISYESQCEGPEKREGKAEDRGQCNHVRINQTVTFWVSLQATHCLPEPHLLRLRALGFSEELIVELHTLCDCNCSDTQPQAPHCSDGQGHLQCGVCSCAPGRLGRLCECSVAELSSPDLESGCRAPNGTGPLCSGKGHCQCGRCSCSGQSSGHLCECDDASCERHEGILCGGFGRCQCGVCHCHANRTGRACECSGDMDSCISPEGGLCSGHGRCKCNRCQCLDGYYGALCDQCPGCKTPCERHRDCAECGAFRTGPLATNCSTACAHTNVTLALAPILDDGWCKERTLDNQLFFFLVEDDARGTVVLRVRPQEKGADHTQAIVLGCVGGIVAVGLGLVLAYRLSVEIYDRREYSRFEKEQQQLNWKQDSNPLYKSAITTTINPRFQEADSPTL

B1: FIB504 (rat anti-mouse/human beta7 monoclonal antibody), fluorescently labeled (antibody, V domains shown)
VH: EVQLQESGPGLVKPSQSLSLTCSVTGFFITNNYWGWIRKFPGNKMEWMGYISYSGSTSYNPSLKSRISITRDTSKNQFFLQLNSVTTEDTATYYCAMTGSSGYFDFWGPGTMVTVSS
VL: DVVMTQSPATLSVTPGERISLSCRASESVDTYLHWYQQKPNESPRLLIKYASQSISGIPSRFSGSGSGTDFTLSINGVELEDLSIYYCQQGNSLPNTFGAGTKLELKR
notes: Bought reagent (BD Biosciences), fluorescently labeled (PE label for colonic tissue)
binding result: binds
